Test results reported in patent publication US20260007756A1, “COMPOUND AND USE THEREOF” (COHERENT BIOPHARMA (SUZHOU) LIMITED, priority 2022, published 2026).
Values after ≈ are worked out from the molar mass of the structure shown. Read-outs that look alike come from different tables or passages of the source.

What was measured:
22RV1 = type: cell-based, human; conditions: 22RV1, 72 h, CellTiter-Glo
Text: (§1) Negative and blank controls were set.

MDA-MB-231 = type: cell-based, human; conditions: MDA-MB-231, 72 h, CellTiter-Glo
Text: as §1

β-glucosidase = conditions: PBS pH 6.8, 25° C.
Procedure: • 1) CR202AL was formulated into a 500 μg/mL stock solution with PBS (pH 6.8); • 2) 100 μL of 500 μg/mL compound stock solution was added to 775 μL of PBS (pH=6.8) before 125 μL of 100 U/mL β-glucosidase was added, and the mixture was well mixed by gentle shaking. • 3) The cleavage reaction system in step 2) was transferred to a thermostatic incubator at 25° C. for 0 h, 1 h, 2 h, 4 h, or 24 h of incubation. Samples were taken and loaded at various time points for LC-MS analysis.

BRD4 = target: T1, BRD4 (Homo sapiens, UniProt O60885); experiment: Target protein degradation activity, Western Blot; type: cell-based
T1 construct: endogenous in cells; host or cells: MDA-MB-231, 22RV1
Procedure: Information on cell lines: MDA-MB-231 (human breast cancer cell) and 22RV1 (human prostate cancer cell)
• 1) A proper amount of RIPA lysis buffer was added to the Protease Inhibitor Cocktail (1:100) a few minutes before use. • 2) The medium of the cells was discarded. The cells were collected by cell scraper, centrifuged, and washed twice with pre-cooled PBS. The lysis buffer was added at 300 μL per dish. The centrifuge tube was placed on ice and mixed by pipetting for 5 min to allow the lysis buffer to fully contact the cells. • 3) After 30 min of lysis, the lysate was collected, transferred to a centrifuge tube, and centrifuged for 15 min at 12000×g to pelletize the cell debris. • 4) The supernatant was transferred to a new centrifuge tube, for subsequent Western Blot. […]
The antibody marked by HRP was coupled with an enhanced chemiluminescence reagent for chromogenesis, and the exposure was conducted via an X-ray film. The positions of the antigen-antibody (primary antibody)-antibody (secondary antibody) complex on the nitrocellulose membrane were determined by means of development, washing, and fixation. […]

Solubility study in PBS = type: physicochemical; conditions: aqueous buffer, thermodynamic from solid; PBS (pH 7.2 to 7.4); read-out: Solubility, concentration
Procedure: The mixture was vortexed for 2 min until the solid was dissolved. The solubility was calculated as: C=m/V, C: concentration, m: sample weight, V: PBS total volume.

Plasma stability study 2 = type: in vitro ADME; conditions: mouse plasma, 37° C.
C4-2 = conditions: C4-2, 72 h, CellTiter-Glo
Procedure: Cells were prepared in advance, trypsinized, collected, counted, diluted to 1.5×10^4 cells/mL in a complete cell culture medium, and plated in 96-well plates. The diluted cell suspension was added at 100 μL/well, and negative and blank control wells were set on each plate. The 96-well plates with the added cells were incubated overnight at 37° C. in a 5% CO2 incubator.
Samples were serially diluted with medium (serially 3-fold diluted from 10 μM) to 9 concentrations. The medium in the plates was discarded, and the drug solutions were added at 100 μL per well to a 96-well plate in triplicate. Negative and blank controls were set. The plates were incubated at 37° C. for 72 h in a 5% CO2 incubator.
The CellTiter-Glo buffer was thawed and warmed to room temperature, and the CellTiter-Glo substrate was warmed to room temperature. The CellTiter-Glo buffer was added to the flask containing CellTiter-Glo substrate to dissolve the substrate, thereby preparing a CellTiter-Glo working solution, which was then vortexed slowly to complete dissolution. The cell culture plates were equilibrated at room temperature for 30 min, before the CellTiter-Glo working solution was added at 50 μL/well (about half the volume of cell culture medium in each well). The plate was covered by aluminum foil to keep out of light. The culture plate was shaken on an orbital shaker for 2 min to induce cell lysis. The culture plate was left to stand at room temperature for 10 min to stabilize the luminescence signals. The luminescence signal was detected on a microplate reader (Molecular Devices SpectraMax iD5).
Four-parameter curves were fitted using GraphPad Prism 8.0.2 to give IC50 values.

SK-OV-3 = experiment: Expansion inhibition of tumor cells (Example 10, CCK-8); type: cell-based; conditions: Homo sapiens, SK-OV-3 (FOLR1 overexpression), 72 h
Procedure: Samples were serially diluted with medium (serially 5-fold diluted from 10 μM) to 9 concentrations. […] Negative and blank controls were set.
A CCK-8 developing solution was added at 10 μL/well (10% of the liquid volume in the wells). The plates were incubated at 37° C. for a proper time (the OD value was controlled within the range of 1.0-2.5 as possible). The plate covers were removed, and the 96-well plates were loaded on a microplate reader (Molecular Devices SpectraMax iD5) to read the measurement at 450 nm.

Compound: CC[C@@H]1C(=O)N(C)c2cnc(Nc3ccc(-c4cn([C@H]5CC[C@@H](N(CCOCCC#Cc6cccc7c6CN(C6CCC(=O)NC6=O)C7=O)C(=O)OCc6ccc(O[C@@H]7O[C@H](C(=O)O)[C@@H](O)[C@H](O)[C@H]7O)c(NC(=O)CCNC(=O)COCCOCCn7cc(C[C@H](NC(=O)[C@H](CCCCN)NC(=O)[C@H](CC(=O)O)NC(=O)[C@H](CC(=O)O)NC(=O)Cc8ccc(CNC(=O)NCCCC[C@H](NC(=O)N[C@@H](CCC(=O)O)C(=O)O)C(=O)O)cc8)C(=O)N[C@@H](CCCCNC(=O)CC[C@H](NC(=O)c8ccc(NCc9cnc%10[nH]c(N)nc(=O)c%10n9)cc8)C(=O)O)C(N)=O)nn7)c6)CC5)nn4)cc3OC)nc2N1C1CCCC1 (some centres unmarked) [CR202AL]
- IC50 (22RV1): 6.3 nM
- IC50 (MDA-MB-231): 2.5 nM
- CR20274 release rate of CR202AL after cleavage (β-glucosidase; 0 h): 5.16%
- Principal component residue of CR202AL after cleavage (β-glucosidase; 0 h): 100.00%
- CR20274 release rate of CR202AL after cleavage (β-glucosidase; 1 h): 107.33%
- Principal component residue of CR202AL after cleavage (β-glucosidase; 1 h): 26.70%
- CR20274 release rate of CR202AL after cleavage (β-glucosidase; 2 h): 146.03%
- Principal component residue of CR202AL after cleavage (β-glucosidase; 2 h): 9.75%
- CR20274 release rate of CR202AL after cleavage (β-glucosidase; 4 h): 146.54%
- Principal component residue of CR202AL after cleavage (β-glucosidase; 4 h): 4.87%
- CR20274 release rate of CR202AL after cleavage (β-glucosidase; 24 h): 100.80%
- Principal component residue of CR202AL after cleavage (β-glucosidase; 24 h): 0.00%
- Degradation of BRD4 (Western Blot) (BRD4; 3 nM over 6 h): almost completely degrading
- Degradation of BRD4 (Western Blot) (BRD4; at 24 h (FIG. 4B)): still retain strong degradation activity
- solubility at 2 min (Solubility study in PBS): 5700 µg/mL (≈ 1910 µM)
- CR20274 release rate (actual release/theoretical release) (Plasma stability study 2; 0 h): 0.01%
- Residual rate of principal component (Plasma stability study 2; 0 h): 76.04%
- CR20274 release rate (actual release/theoretical release) (Plasma stability study 2; 0.5 h): 0.47%
- remaining at 0.5 h, 100 μg/mL (Plasma stability study 2; 0.5 h, read-out: Residual rate of principal component): 69.8%
- CR20274 release rate (actual release/theoretical release) (Plasma stability study 2; 1 h): 0.86%
- remaining at 1 h, 100 μg/mL (Plasma stability study 2; 1 h, read-out: Residual rate of principal component): 78.1%
- CR20274 release rate (actual release/theoretical release) (Plasma stability study 2; 2 h): 0.96%
- remaining at 2 h, 100 μg/mL (Plasma stability study 2; 2 h, read-out: Residual rate of principal component): 75.6%
- CR20274 release rate (actual release/theoretical release) (Plasma stability study 2; 4 h): 2.60%
- remaining at 4 h, 100 μg/mL (Plasma stability study 2; 4 h, read-out: Residual rate of principal component): 74.9%
- CR20274 release rate (actual release/theoretical release) (Plasma stability study 2; 6 h): 3.69%
- remaining at 6 h, 100 μg/mL (Plasma stability study 2; 6 h, read-out: Residual rate of principal component): 57.1%
- CR20274 release rate (actual release/theoretical release) (Plasma stability study 2; 24 h): 28.17%
- Residual rate of principal component (Plasma stability study 2; 24 h): 1.20%
- IC50 (C4-2): 0.5 nM

Compound: Cc1ncsc1-c1ccc(CNC(=O)C2CC(O)CN2C(=O)C(NC(=O)COCCOCC(=O)NC2(C(=O)NCCCn3cc(-c4ccc(OC(F)(F)F)cc4)c4cc(CN5CCN(Cc6c(Cl)cccc6Cl)CC5)ccc43)CCNCC2)C(C)(C)C)cc1 (centres unmarked) [CR202CF]
- IC50 (SK-OV-3): 31.5 nM

Compound: Cc1ncsc1-c1ccc(CNC(=O)C2CC(O)CN2C(=O)C(NC(=O)COCCOCCOCC(=O)NC2(C(=O)NCCCn3cc(-c4ccc(OC(F)(F)F)cc4)c4cc(CN5CCN(Cc6c(Cl)cccc6Cl)CC5)ccc43)CCNCC2)C(C)(C)C)cc1 (centres unmarked) [CR202CI]
- IC50 (SK-OV-3): 0.3 nM
